Reference: IntAct's records for PubMed 31515488

B1: Centrosomal protein POC5 (Homo sapiens), Q8NA72 (parent)
chain: MSSDEEKYSLPVVQNDSSRGSSVSSNLQEEYEELLHYAIVTPNIEPCASQSSHPKGELVPDVRISTIHDILHSQGNNSEVRETAIEVGKGCDFHISSHSKTDESSPVLSPRKPSHPVMDFFSSHLLADSSSPATNSSHTDAHEILVSDFLVSDENLQKMENVLDLWSSGLKTNIISELSKWRLNFIDWHRMEMRKEKEKHAAHLKQLCNQINELKELQKTFEISIGRKDEVISSLSHAIGKQKEKIELMRTFFHWRIGHVRARQDVYEGKLADQYYQRTLLKKVWKVWRSVVQKQWKDVVERACQARAEEVCIQISNDYEAKVAMLSGALENAKAEIQRMQHEKEHFEDSMKKAFMRGVCALNLEAMTIFQNRNDAGIDSTNNKKEEYGPGVQGKEHSAHLDPSAPPMPLPVTSPLLPSPPAAVGGASATAVPSAASMTSTRAASASSVHVPVSALGAGSAATAASEEMYVPRVVTSAQQKAGRTITARITGRCDFASKNRISSSLAIMGVSPPMSSVVVEKHHPVTVQTIPQATAAKYPRTIHPESSTSASRSLGTRSAHTQSLTSVHSIKVVD
partner: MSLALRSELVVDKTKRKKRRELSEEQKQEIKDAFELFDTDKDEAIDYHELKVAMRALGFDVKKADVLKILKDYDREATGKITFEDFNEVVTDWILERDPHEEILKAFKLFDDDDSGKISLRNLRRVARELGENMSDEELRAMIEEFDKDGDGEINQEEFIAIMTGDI
B2: Stabilizer of axonemal microtubules 1 (Homo sapiens), Q8IYX7 (parent)
chain: MKTKCICELCSCGRHHCPHLPTKIYDKTEKPCLLSEYTENYPFYHSYLPRESFKPRREYQKGPIPMEGLTTSRRDFGPHKVAPVKVHQYDQFVPSEENMDLLTTYKKDYNPYPVCRVDPIKPRDSKYPCSDKMECLPTYKADYLPWNQPRREPLRLEHKYQPASVRFDNRTTHQDDYPIKGLVKTISCKPLAMPKLCNIPLEDVTNYKMSYVAHPVEKRFVHEAEKFRPCEIPFESLTTQKQSYRGLMGEPAKSLKPLARPPGLDMPFCNTTEFRDKYQAWPMPRMFSKAPITYVPPEDRMDLLTTVQAHYTCPKGAPAQSCRPALQIKKCGRFEGSSTTKDDYKQWSSMRTEPVKPVPQLDLPTEPLDCLTTTRAHYVPHLPINTKSCKPHWSGPRGNVPVESQTTYTISFTPKEMGRCLASYPEPPGYTFEEVDALGHRIYKPVSQAGSQQSSHLSVDDSENPNQRELEVLA
partner: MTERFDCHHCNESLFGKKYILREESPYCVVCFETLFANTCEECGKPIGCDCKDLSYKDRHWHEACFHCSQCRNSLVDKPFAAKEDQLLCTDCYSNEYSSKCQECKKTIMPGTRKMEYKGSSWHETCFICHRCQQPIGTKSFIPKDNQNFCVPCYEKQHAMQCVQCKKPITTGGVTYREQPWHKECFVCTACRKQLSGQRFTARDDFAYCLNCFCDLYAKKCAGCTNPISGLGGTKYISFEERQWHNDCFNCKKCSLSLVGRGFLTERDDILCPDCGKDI
B3: Vesicle transport through interaction with t-SNAREs homolog 1B (Homo sapiens), Q9UEU0 (parent)
chain: MASSAASSEHFEKLHEIFRGLHEDLQGVPERLLGTAGTEEKKKLIRDFDEKQQEANETLAEMEEELRYAPLSFRNPMMSKLRNYRKDLAKLHREVRSTPLTATPGGRGDMKYGIYAVENEHMNRLQSQRAMLLQGTESLNRATQSIERSHRIATETDQIGSEIIEELGEQRDQLERTKSRLVNTSENLSKSRKILRSMSRKVTTNKLLLSIIILLELAILGGLVYYKFFRSH
partner: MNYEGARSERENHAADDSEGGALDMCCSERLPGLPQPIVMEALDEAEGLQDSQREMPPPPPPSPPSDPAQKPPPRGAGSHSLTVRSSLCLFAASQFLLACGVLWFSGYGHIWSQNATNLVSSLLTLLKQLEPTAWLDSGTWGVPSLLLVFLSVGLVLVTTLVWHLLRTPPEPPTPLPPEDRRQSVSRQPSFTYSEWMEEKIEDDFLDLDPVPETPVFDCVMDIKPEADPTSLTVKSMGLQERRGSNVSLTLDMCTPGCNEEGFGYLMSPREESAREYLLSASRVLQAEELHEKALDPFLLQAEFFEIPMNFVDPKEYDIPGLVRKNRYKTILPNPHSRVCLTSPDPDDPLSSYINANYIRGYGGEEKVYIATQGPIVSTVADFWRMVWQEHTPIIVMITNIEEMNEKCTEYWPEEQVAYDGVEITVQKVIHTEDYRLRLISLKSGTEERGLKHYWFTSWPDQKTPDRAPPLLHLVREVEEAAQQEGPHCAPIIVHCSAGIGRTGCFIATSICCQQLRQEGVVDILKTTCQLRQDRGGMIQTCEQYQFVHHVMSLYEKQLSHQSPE
B4: PIH1 domain-containing protein 2 (Homo sapiens), Q8WWB5 (parent)
chain: METSSKGLLTQVTQFWNLLDDLAQSDPEGYEKFIQQQLKEGKQLCAAPEPQLCLQTRILKPKEKILFINLCQWTRIPAPQSTTHPVPLTVGKPEDTTEISDAYTVIDVAYNPDVLHAAEKDQVKKNQLIQMAMKCIEEKFQFTLSHSYHITKFRIKGSIQRMKQNLMGIQTDSIDLREKMRRELTLGQIRSSTMSNPDHFPQLLLPKDQVSGKAVCLIEEISSTEIQVEMKMPAYELKIVHDHSEKPLKIELKVELPGINSVSLCDLSVSEDDLLIEVSEKYRLHLNLPKLIDTEMTTAKFIKEKSTLIITMPLV
partner: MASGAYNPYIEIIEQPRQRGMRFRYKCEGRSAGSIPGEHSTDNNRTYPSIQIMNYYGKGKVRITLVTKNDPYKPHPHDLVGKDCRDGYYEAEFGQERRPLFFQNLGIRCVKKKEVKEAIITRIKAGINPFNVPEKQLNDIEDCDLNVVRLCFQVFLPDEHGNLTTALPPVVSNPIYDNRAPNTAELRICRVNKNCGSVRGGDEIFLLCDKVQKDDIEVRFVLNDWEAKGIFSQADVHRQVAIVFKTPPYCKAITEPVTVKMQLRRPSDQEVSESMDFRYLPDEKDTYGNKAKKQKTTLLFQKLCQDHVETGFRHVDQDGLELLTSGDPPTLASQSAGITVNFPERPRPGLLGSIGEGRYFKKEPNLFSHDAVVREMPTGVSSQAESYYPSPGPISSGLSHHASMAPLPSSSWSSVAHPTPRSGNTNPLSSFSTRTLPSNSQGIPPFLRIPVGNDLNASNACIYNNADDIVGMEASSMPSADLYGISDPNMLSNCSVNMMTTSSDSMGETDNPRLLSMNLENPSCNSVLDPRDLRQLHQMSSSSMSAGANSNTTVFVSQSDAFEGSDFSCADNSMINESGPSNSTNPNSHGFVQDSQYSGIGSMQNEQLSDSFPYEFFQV

Variants of: B1
Details: with cetn3_human CETN3, O15182

| effect of a mutation on the interaction | Variant |
| --- | --- |
| with no effect | H36R |

Variants of: B2
Details: with fhl2_human FHL2, Q14192

| effect of a mutation on the interaction | Variant |
| --- | --- |
| disrupting interaction strength | N464K |
| disrupting interaction strength | D118G |

Variants of: B3
Details: with ptn5_human PTPN5, P54829

| effect of a mutation on the interaction | Variant |
| --- | --- |
| with no effect | R124Q |
| with no effect | R176H |

Variants of: B4
Details: with rel_human REL

| effect of a mutation on the interaction | Variant |
| --- | --- |
| with no effect | A102D |
| with no effect | A117V |
